Data: PMC11428423 (2024)

T1: MT-C34 peptide conjugated to bovine serum albumin (BSA-MT-C34 conjugate) (HIV-1, covalently conjugated to bovine serum albumin by the sulfo-SMCC linker)
T1 chain: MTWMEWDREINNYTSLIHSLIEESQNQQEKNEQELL

B1: C24-6 mouse monoclonal antibody against the MT-C34 peptide (mAb) (antibody, V domains shown)
VH: EVQLVESGGDLVKPGGSLKLSCAASGFTFSRFGMSWGRQTPDKRLEWVATISTGGSYTYYPDSVKGRFTISRDNAKNSLYLQMSSLKSEDTAMYYCARHDDTAVYAMDYWGQGTSVTVSS
VL: DVVMTQTPLSLPVSLGDQASISCRSSQSLVHSDGDTYLHWYLQKPGQSPKLLIYKVSNRFSGVPDRFSGSGSGTDFTLKISRAEAEDLGVYFCSQSTHVPLTFGAGTKLELK
B2: human chimeric anti-MT-C34 antibody (chAb) (antibody, V domains shown)
VH: B1 VH
VL: B1 VL

Columns and labels:
[1] = target: T1, MT-C34 peptide conjugated to bovine …; assay: ELISA; replicate mAb-3, slope x 10^-8 M
[2] = target: T1, MT-C34 peptide conjugated to bovine …; assay: ELISA; replicate chAb-1, slope x 10^-8 M

| Binder | Kd [1] [nM] | Kd [2] [nM] |
| --- | --- | --- |
| B1 | 2.26 |  |
| B2 |  | 1.14 |
